Biological target: T1, BG505 Env UFO (uncleaved prefusion-optimized) trimer with Avi tag (HIV-1 clade A, BG505, stabilised)
T1 construct: also called BG505 UFO trimer; BG505 UFO
Assay: BLI; antibody (20 µg/mL) immobilised on Anti-hIgG-Fc Capture (AHC) biosensors; serially diluted BG505 UFO trimer or V3 peptide as analyte; OCTET Red96
Settings: both partners purified

B1: JT18 (antibody, V domains shown)
VH: EVQLVQSGAEVKRPGESLRISCKTSGYDFTDYWINWVRQMPGKGLEWVGMVYPSDSETAYSPSFRGRVTISADTSISTSYLQWTSLEASDTATYYCARPVSGTFALDVWGRGVLVAVSS
VL: QSVLTQPPSMSGAPGQRVTMSCTGGNSNIGANLYVQWYQQVPGTAPRLLIYEDNQRPSGVSDRFSGSRSGSSASLTITGLQSEDEADYYCQSYDNSLSTVLFGGGTRLTVL
notes: IGHV5-20*02, IGHJ5-2*02, IGHD1-44*02, CDR3 12 aa; constant region added, not specified; IGLV1S1*01, IGLJ3*01, CDR3 11 aa; Recombinant IgG; constant regions not specified (captured on anti-human IgG Fc biosensors, detected with anti-monkey IgG); source: HEK293T, co-transfected linear expression fragments, in supernatant (screen); Expi293F, co-transfected plasmids, purified (protein A agarose)
  Kd: 4.03 nM

— paper PMC11240982, “Recapitulation of HIV-1 Neutralization Breadth in Plasma by the Combination of Two Broadly Neutralizing Antibodies from Different Lineages in the Same SHIV-Infected Rhesus Macaque” (International Journal of Molecular Sciences, 2024)
